# Measurements taken from publication PMC8479633.
# How the values were obtained:
# [1] = target: SMAD2 linker-MH2 construct, non-phosphorylated (S2LMH2); test: SAXS with ensemble optimisation
# [2] = target: phosphomimetic full-length SMAD2 (S2FLEEE) (UniProt Q15796); test: SAXS with ensemble optimisation
# phosphomimetic full-length SMAD2 (S2FLEEE) (from UniProt Q15796 1-467) (natural protein), sequence (Q15796 whole entry): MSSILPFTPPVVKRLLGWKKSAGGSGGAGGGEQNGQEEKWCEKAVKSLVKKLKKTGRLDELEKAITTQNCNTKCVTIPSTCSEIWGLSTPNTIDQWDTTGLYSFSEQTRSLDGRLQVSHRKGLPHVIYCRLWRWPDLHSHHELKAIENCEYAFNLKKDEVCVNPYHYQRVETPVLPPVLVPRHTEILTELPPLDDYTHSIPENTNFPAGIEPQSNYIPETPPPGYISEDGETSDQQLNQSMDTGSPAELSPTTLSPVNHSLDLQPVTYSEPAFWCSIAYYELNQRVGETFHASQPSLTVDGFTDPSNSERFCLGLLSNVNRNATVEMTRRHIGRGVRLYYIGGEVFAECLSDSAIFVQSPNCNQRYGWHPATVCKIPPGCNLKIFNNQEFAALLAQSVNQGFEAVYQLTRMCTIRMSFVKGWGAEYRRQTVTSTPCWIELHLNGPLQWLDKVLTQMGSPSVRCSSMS
# SMAD2 linker-MH2 construct, non-phosphorylated (S2LMH2) (domain or fragment), sequence (Q15796 269-467): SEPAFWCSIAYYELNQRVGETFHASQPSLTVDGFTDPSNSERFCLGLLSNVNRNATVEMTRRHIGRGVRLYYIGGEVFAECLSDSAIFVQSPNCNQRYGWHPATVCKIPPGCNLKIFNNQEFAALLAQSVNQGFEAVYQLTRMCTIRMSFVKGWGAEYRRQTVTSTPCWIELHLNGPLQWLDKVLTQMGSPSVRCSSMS
percent of the population as dimer [1],percent of the population as dimer [2],percent of the population as trimer [2],Substance
25%,–,–,"SMAD2 linker-MH2 construct, non-phosphorylated (S2LMH2) (domain or fragment)"
–,36%,44.8%,phosphomimetic full-length SMAD2 (S2FLEEE) (from UniProt Q15796 1-467) (natural protein)
